Experimental data published in the DeepSol protein solubility set.

Assay: soluble on expression in E. coli; label from the status in PepcDB or PDB records
In the case of “MSLCELLGMSANVPTDICFSFTGLMQRGGKTGPHRDGWGIAFYEGKGFRTFKDPNPSSQSKIAELVQQYPIKSRAVISHIRQANRGGVNLENTHPFTRELWGQYWTFAHNGQLTGYQNLVTGRHRPVGETDSELAFCWLLNQMEQCYPEGPQDWPEMLRYVAQCCDELRALGVFNMLLSNGEYVMAYCTNHLYWITRRAPFGCAALLDEDVEINFQEETTPNDVVSVIATQPLTGNETWQRMKPGQFAFFHFGERIEDNAHVLMDVGFAPNRPGCQAPSQPLDEGGSHHHHHH”, the “soluble on expression in E. coli” value is reported as “soluble”. In the case of “MSLVGGFPHHPVVHHEGYPFAAAAAAAAAAAASRCSHEENPYFHGWLIGHPEMSPPDYSMALSYSPEYASGAAGLDHSHYGGVPPGAGPPGLGGPRPVKRRGTANRKERRRTQSINSAFAELRECIPNVPADTKLSKIKTLRLATSYIAYLMDLLAKDDQNGEAEAFKAEIKKTDVKEEKRKKELNEILKSTVSSNDKKTKGRTGWPQHVWALELKQ”, the “soluble on expression in E. coli” value is reported as “not soluble”. In the case of “MKSIHYTKAVSGTERMTFGSNDEWERIVEEMLEFEKICIPFHSTSHSPDILFKLHGRTNEKNLMIVGIACKGRWSRNGIRWNEILEEAHKFLKPVHDQVLTSHPTWHCMLIIMSTQLATNVSEDLNHSSRCYSFGDSVGDFVIPHNCELVILSEADVENFIGKDILSNLRNAFKAVDNPHSRNIGISTLQKIVLLLSKNI”, the “soluble on expression in E. coli” value is reported as “not soluble”. For “MASSSATLSLCSTFSAHCNVNSRRSSTILCSLSKPSLNLAKPLTGFLSPSTASTSRTAFTVAPKFAESVVEAEPETTDIEAVVVSDVSEVTEEKAKREEIFAVIMVGGRQYIVFPGRYLYTQRLKDANVDDQIVLNKVLLVGTKTHTYIGKPVVTNATVHAVVESQGLNDKVVVFKYKPKKKYRRNIGHRQPNTRIRITGITGYEEYPASPNVAVGEVNLLEHHHHHH”, the “soluble on expression in E. coli” value was “not soluble”. With “MELLVKMGWDDWFAAHAGASSDAGRPGRVVAEQRGEYRVRTADGEVAAILTGRAMRETAGDRLERPVVGDWVIVEPVAGDSTVLVRAVLPRRTILARRESGRGAEVQPVAANVDIVFIVAGLDGALNLRRLERFLAAARESGAEPVVLLTKSDLAGDPAAPAEEAATVAPGIRVMTVSSLDGAGVDEVGALLAPGVTACFIGPSGVGKSSLVNLLAGDPVMAIGAVRERDAKGRHTTTHRQLILLPGGGIVIDTPGMREFGLWQVDEGIDAAFPEIAELAAGCRFHDCSHRHEPGCAVRTALAEGGLDPGRYGSYLKLRLEEETMATLADAEGRRERKKGERRMAKGLRAVLRKKGKK” the “soluble on expression in E. coli” value was “not soluble”. With “MKTKIINLVVVTGMSGAGKTVAIQSFEDIGYFTIDNIPPSLVPKVIELLKHSEETDKIALVVDMRSRVFFDEINDILDQLESNEELNFKILFLDATDGELVSRYKETRRSHPLAADGRVLDGIKLERELLSPLKSLSQNVVDTTKLTPRQLRKAISEQFSSKQDQSSFRIEVLSFGFKYGLPLDADLVFDVRFLPNPYYDPTLRNLTGLDKEVYDFVMTHKESEDFYKNLNHLIKPILPGYQKEGKSVLTIAVGCTGGQHRSVAFAHRLAQDLKNDWTVNETHRDKDRRKETVNRS” the “soluble on expression in E. coli” value was “not soluble”. With “MKTENFRSYNQRVYSETLNDGLKITLIPKKDFHSVFAALFVNAGATDQQIVDEKGETIIFPSGTAHFAEHKMFEKKNGDVSEIFSAYGAFSNAYTSQSQTVYYFQGTENIDQSIKLLLQFVQEPYYTEASVAKEQGIIGQEISMYQDMPDWVSSFGLMKNLYRKQPLGEDIAGNIDSIETINADLLYKFHRYFYQPSNLQLKIAGNIDPTGLLALLKQTQARLTRPRINFSRVNRFNAKIPVKKSAEQNMPVALPLLAAGIKGSGNLPDIDTAIDLSFSSDLILDIYFSDSSDWYLRNYNQGFLNDDFSAQADVGRNYNFITFTGHSENKELFKEIYSQLKNISYSQELEKEFQWQKKASLGELSMSLDQLENNVFTIADVFNTDVNIFRVIEKLRELTYRKAVNLFESYYNLDSFSSFCVNPVE” the “soluble on expression in E. coli” value was “not soluble”. With “MGSDKIHHHHHHEVRSTFINFFREKKEHTYVHSSSVIPHDDPTLLFANAGMNQFKPLFLGIADPNSDLAKLKRAVNTQKCIRAGGKHNDLDDVGKDVYHHTYFEMLGNWSFGDYFKKEIITWAWELLTTVYGIPAERLYVSVFGGDEANGVPADSEARDIWRSVGVPDERILNFGMKDNFWEMGDVGPCGPCSEIHYDRIGNRDASHLVNADDPMVVEIWNLVFIQFNREEGGVLKPLPAKHIDCGLGLERLIAVMQDKTSNYDTDIFQPIFEAIHKGSGVRAYTGFIGDEDKDGVDMAYRVVADHVRTLTIALSDGGRPDNSGRGYVLRRILRRGVRYASEKLNAQPGFFASLVPVVISILGETFPELSRDPVTVMDIINDEEKQFLKTLSRGRVLFQRAVQSLPEGTMTFPGDVSWRLYDTYGFPADLTQLMAEEKGLSVDNTAFEEARRKAIETSSAGTGKFRDTLDLDVHALAELQQKGVPTTDDSPKYAYTFTGEGSDAVYKFEPCVGKILAIRRDGKFVDQLAAGEEGAILLDRTNFYAEQGGQIYDVGVLTKVNDESNEFNVSNCQVRGGYIVLVGSAEGSFSVGDQVNERFDEDRKQLIMKNHTGTHVLNYALRKVLADSDQKGSLVAPDRMRFDFTNKAGMTVQQVKKAEEYAQQLIDTKGQVYAKNSPLGEAKKVKGLRAMFDETYPDPVRVVAVGTPVEQLLQNPDAEEGQNTTVEFCGGTHLQNVSHIGRIVIASEEAIAKGIRRIVALTGPEAER” the “soluble on expression in E. coli” value was “not soluble”. With “MGSDKIHHHHHHMTLPPPRPPALCRGVVGLPLETQIDLTASNLAAVADLAAQYGLLIYLEALSWTPLNTIDRQLRTIEIANRDNIRLVIDFWHCYTSGDTPKHIARLHKDIIYGVHICDSLAYAGGVPDENMLRDVPTGNGVLNLKEWVDAVKSTGYDGWWSCELFCRRQHQENSYDVARSLNALMRDLVGA” the “soluble on expression in E. coli” value was “not soluble”. With “DMGESVKIIDLARQMITLSGLKPNTPEQPDGDIEILITGLRPGEKLYEELLIGDNVRKTGHPRIMTANETMLPWHELSALLDRIRAACDRYDQQAIRT” the “soluble on expression in E. coli” value was “not soluble”. With “MFVRTAVVLLLVASTAYTFVAPPSQATLACITCVATVKGVEAKMLHEGGNVAKHDVDAICLKEVPTHSAEHLCEEYGEHEVDVMVTLIKQDVPPKMICQELQKC” the “soluble on expression in E. coli” value was “not soluble”. With “MAKSLLFITSFLKPRYNKPIMEKNWNVGTKYLNDKTRIIVVGITGREASQVVTESEALYPGFIKVGVTPGKGGTEVAGVPVFNTVKEALSSPEGKDVNTGLVYVPPASVKDAVIELIDAGIKLIYIVTEHVPIRDTVYFYHYAKERGVTIVGPTSLGCIVPRIPARIGAIGGKNPSIAYADGGLVILSKSGGLTTTTAEMFKRRGWGVYMALALGGDVISCTTFADVLEEIADDPNVKGVVIQGEVGGTYEEQAAETILRLYKEGRWNKPVAAFVAGKFQEKMEGVSFGHAGAIVERGKGKATDKIRMFNEVGKETGLVKVAEFYHDLVNCIEELGVPRDFEDSTPGGKVEPLYRTIDPETCEFKPQD” the “soluble on expression in E. coli” value was “soluble”. In the case of “MTLTKAELADILVDKVSNVTKNDAKEIVELFFEEIRSTLASGEEIKISGFGNFQLRDKPQRPGRNPKTGEEVPITARRVVTFHASQKLKSMVEHYYDKQR”, the “soluble on expression in E. coli” value is reported as “not soluble”. With “MGSDKIHHHHHHMIRIKTPSEIEKMKKAGKAVAVALREVRKVIVPGKTAWDVETLVLEIFKKLRVKPAFKGYGGYKYATCVSVNEEVVHGLPLKEKVFKEGDIVSVDVGAVYQGLYGDAAVTYIVGETDERGKELVRVTREVLEKAIKMIKPGIRLGDVSHCIQETVESVGFNVIRDYVGHGVGRELHEDPQIPNYGTPGTGVVLRKGMTLAIEPMVSEGDWRVVVKEDGWTAVTVDGSRCAHFEHTILITENGAEILTKEG” the “soluble on expression in E. coli” value was “soluble”. For “MSLNIVTLISWDFKRNNESFQRAIINGYDYWSRILDDHGVEKYVILLTCNRVELYYRGDPFDVQEKGYNIISDDMAINHLFHVAAGLDSMSIGENEVLKQVKQAYEKSSSMGKSDKFLSLIFQRAISVGKLVRSKTGIGKGKVSIPSIVYDIVRKNGGNKILLVGNGMLASEIAPYFSYPQYKVTVAGRNIDHVRAFAEKYEYEYVLINDIDSLIKNNDVIITATSSKTPIVEERSLMPGKLFIDLGNPPNIERGNNVITLDEIYEISKKNEMLREEKINQAEILIENEMKATMNKIKDLMIDDIFSQFYRFASVVQTMEIQKFRKMHPEVNENDLEALAHSIINKILNVPVTTLKAVSRSQGNSDFNRLFESFSSNFNDIVSAALQSYEGLRDTQSLRDRTRQLLQKSEGHHHHHH”, the “soluble on expression in E. coli” value was “soluble”.
